# In the DeepSol protein solubility set:
# Test: soluble on expression in E. coli; label from the status in PepcDB or PDB records
row,Sequence,soluble on expression in E. coli
1,MSIYSKILVVADINNDEQPALARAVQLAQKSVSRSRITFFLSIYDFSYDMTSMLSVDERDAMRRGVIHQREQWMRKIAQPYLNDSFDFDVCVVWHNRPYEAIIAEVYAGGHDLLIKGTRKHDVLESVIFTPTDWHLLRKCPTPVLLIKNSDWPEQANILASVHVGSENPTHIDLNDAMVERLKEMSNRLDAEPYLVNAYPVTPANITIELPEFDPTTYTDAVRGHHLTAMKALRQKHGIDEEQT,not soluble
2,MSLAETWDMPLAYSGSNFHSVTAAEFGNCVTTGTGGEIEIVTHPSGSLFKGADIKRAVQTGQAPIGERLLSGHQNENALFGFDSVPFLATSFDDADKLWKAAKEPLSALLAEQNLTLLYSVPWPPQGLYFKNEVNAVADMKGIKFRSYNNATSRLAELTGMLPVTIEAAEISQAFATGVADSMISSGSTGYDRKVWESLNYFYEVDAWLPRNYVFVNSDVWSGVSDQNKNVIQACAGLAEYAGNWRSKEYTGFTLQGLRDGGMTVGPASDQLVGELKEIGVTMTSEWLEAAGDQGKAIVDAFKAEGHHHHHH,not soluble
3,MSLEISASIIDISENALEQLGVDWRLHNSRFDLQTGNGTNTMLNNPGSLDSVATTAGAAAAIAATPAGGVLSAVIGGGSRYLMARISALQQTDQARITANPKVATLDNTEAVMDNRQNFYVPVAGYQSADLYAISAGVSLRVLPMVVMDGGTVRIRMNVHIEDGQITSQQVGNLPITSQSEIDTQALINEGDSLLIAGYSVEQQSKSVDAVPGLSKIPLVGALFRTDQTTGKRFQRMFLVTPRVITEGHHHHHH,not soluble
4,ADVILFPSKNGAVTFTHKRHSEFVRECRSCHEKTPGKIRNFGKDYAHKTCKGCHEVRGAGPTKCKLCHTG,soluble
5,MGVYVLNVTDNSTFKGILNISDTVTAVNDQTFDSSKDLIDYVSSQKLGDSVKVTYEEDGQTKSAEGKIITLENLEHHHHHH,not soluble
6,MGSDKIHHHHHHMSLKEEQVSIKQDPEQEERQHDQFNDVQIKQESQDHDGVDSQYTNGTQNDDSERFEAAESDVKVEPGLGMGITSSQSEKGQVLPDQPEIKFIRRQINGYVGFANLPKQWHRRSIKNGFSFNLLCVGPDGIGKTTLMKTLFNNDDIEANLVKDYEEELANDQEEEEGQGEGHENQSQEQRHKVKIKSYESVIEENGVKLNLNVIDTEGFGDFLNNDQKSWDPIIKEIDSRFDQYLDAENKINRHSINDKRIHACLYFIEPTGHYLKPLDLKFMQSVYEKCNLIPVIAKSDILTDEEILSFKKTIMNQLIQSNIELFKPPIYSNDDAENSHLSERLFSSLPYAVIGSNDIVENYSGNQVRGRSYPWGVIEVDNDNHSDFNLLKNLLIKQFMEELKERTSKILYENYRSSKLAKLGIKQDNSVFKEFDPISKQLEEKTLHEAKLAKLEIEMKTVFQQKVSEKEKKLQKSETELFARHKEMKEKLTKQLKALEDKKKQLELSINSASPNVNHSPVPTKKKGFLR,not soluble
7,MSLNVLHVASECNPFFKTGGLADVLGSLPKALIKQGINVSVILPKYGHLSDEWQNQLTLKKSFTVSVTWRNQYCGLEQFVDQGVTYYFIDNEYYFKRERLYGYLDEAERFTFFNHAVLSSLPFLDESPDLIHCHDWQSGLIPAYMKTGSVENPVPTVFTIHNLRYQGAFPPDVFRELLHFAPEHFAGLEMDGAINFLKGALVHSDRVTTVSPTYAQEIQTPAFGEGLHGLLHQERGKTRGILNGIDLEDFDPKTDPHVTYPYKHNQMEKRKNKQVIQRLFELPERKDIPLIAMVSRLVEEKGVPLLTQIAGELVTTENVQLAILGTGDPSLEDQLHHLASLHPHQISFKCVFAEPLARKLYAGADLFIMPSRFEPCGLSQMISLRYETVPIVRETGGLYDTIQSYNEEIGEGNGFSFTHYNAHDFLYTIKRALRFYRTEKEWENLLLNIYSSEVGWDVSAKQYTALYEEILGKRKVEAEGHHHHHH,not soluble
8,MSLKVLICDDDKIVRDDIANIAKESGYVDYVKKVKDGIEAIEFIKNEKIDLLIIDIDMPYKNGIDSAEEILSIDKDIHIVFVTGFADYSLESFKVHPIDFVVKPFKKEKILDSINIAIDHINSHKIANNNFIEDTLFVYKIRKQIHMINFDDIVMFEKNSRAINLHTKDEDIIKFYENFDDLKKRLPPNFFMTHRQYIVNLRFIHKVIPINKSSLEIRFINFQENAILNKSLEKDFLYRFYREGHHHHHH,not soluble
9,MMKLKFYLVYLWYKVLLKLGIKTDEIYYIGGSEALPPPLTKEEEEVLLNKLPKGDQAARSLLIERNLRLVVYIARKFENTGINIEDLISIGTIGLIKAVNTFNPEKKIKLATYASRCIENEILMHLRRNNKNRSEVSFDEPLNIDWDGNELLLSDVLGTDDDIITKDLEATVDRHLLMKALHQLNDREKQIMELRFGLAGGEEKTQKDVADMLGISQSYISRLEKRIIKRLRKEFNKMV,not soluble
10,MSLSSKDLKLSTDVCEQILRVVSRSNRLEELVLENAGLRTDFAQKLASALAHNPNSGLHTINLAGNPLEDRGVSSLSIQFAKLPKGLKHLNLSKTSLSPKGVNSLSQSLSANPLTASTLVHLDLSGNVLRGDDLSHMYNFLAQPNAIVHLDLSNTECSLDMVCGALLRGCLQYLAVLNLSRTVFSHRKGKEVPPSFKQFFSSSLALMHINLSGTKLSPEPLKALLLGLACNHNLKGVSLDLSNCELRSGGAQVLEGCIAEIHNITSLDISDNGLESDLSTLIVWLSKNRSIQHLALGKNFNNMKSKNLTPVLDNLVQMIQDEESPLQSLSLADSKLKTEVTIIINALGSNTSLTKVDISGNGMGDMGAKMLAKALQINTKLRTVIWDKNNITAQGFQDIAVAMEKNYTLRFMPIPMYDASQALKTNPEKTEDALQKIENYLLRNHETRKYLQEQAYRLQQGIVTSTTQQMIDRICVKVQDHLNSLRNCGGDAIQEDLKSAERLMRDAKNSKTLLPNLYHVGGASWAGASGLLSSPIQETLESMAGEVTRVVDEQLKALLESMVDAAENLCPNVMKKAHIRQDLIHASTEKISIPRTFVKNVLLEQSGIDILNKISEVKLTVASFLSDRIVDEILDALSHCHHKLADHFSRRGKTLPQQEGHHHHHH,not soluble
11,SLPSAQAPSLLNPTDDFAALGNIAWLWMNSPMHRDWPVHLLARNTLAPIQLGQYILLRCNDVPVAYCSWALMDADTELSYVMAPSSLGGNAWNCGDRLWIIDWIAPFSRDDNRALRRALAERHPDSVGRSLRVRRGGDTARVKEYRGRALDAAAARAQLDRYHAELIAGLRASNGGYAPR,soluble
12,MSLKQQVPLSTATVSMVHSVPELMVSSEQAEQLGREDQQRLHRNRKLVLMVDLDQTLIHTTEQHCQQMSNKGIFHFQLGRGEPMLHTRLRPHCKDFLEKIAKLYELHVFTFGSRLYAHTIAGFLDPEKKLFSHRILSRDECIDPFSKTGNLRNLFPCGDSMVCIIDDREDVWKFAPNLITVKKYVYFQGTGDMNAPPGSRESQTRKKVNHSRGTEEGHHHHHH,not soluble
13,MDIWVNLLSDRLESPNFEFITDFIGGKCVVQKDYLEDEKSQSSSGWLLHVYFRPEEFLDRPFVADIIFRCGTRRREVFSVLLKNDCFFAHMRVKEKTGRLIIAARIRKMLCELDLSKPSGSRQFVVQNFENQLKDGRIFYVNLAKLGQIGGDLFKKWQTVENVQQLSLANETMENRMIEVLMEATAKYDDIVVIRHSFHRLIQLAQTYRMHKLMRVIEENLSETKLMNWDEKILLALQYRMSQLYVQVQRKYLLTPWNILCRIQRLYLSNYAAKSGNASNPYDMIHKNLMQMVMMSDENICIG,not soluble
14,DDDGEHGGRRAALVVTDPLTRTECSACHMAYPAALLPARSWTALMADLPNHFGEDASLDEASRGQIESYLVANAADSSGAGRALRGLVQTDTPLRISELPWFKRKHADEVSPRMLEKARSMSNCAACHTGAERGLFDDD,soluble
15,MKKTIQQLVLERILILDGAMGTMIQQYNLREEDFRNERFAHIPGQLKGNNDLLCLTRPDVIRDIHRKYLEAGADIIETNTFSSTTISMADYHVQEYVREMNQAAVKLAREVADEYTALNPDKPRFVAGSVGPTNKTCSMSPDVNNPAYRAVTYDEMADAYQQQMEAMLESGVDALLIETIFDTLNAKAAILAAERAMKATGVKVPVMLSVTVSDTGGRTLSGQTLEAFLASVQHADIFSVGLNCSFGARQLKPFLEQLAARAPYYISAYPNAGLPNSLGKYDQTPADMAHEVKEYVHEGLINIIGGCCGTTDAYIAEYPALIAGAKPHIPVCKPDCMWLSGLELLEVKPEINFVNVGERCNVAGSRKF,not soluble
16,MSLATTREEALHIHRENQGKLESKSKVPVRNARDLSLAYSPGVAEPCKEIFEDVETVYEYTMKGNMVAVVSNGTAVLGLGNIGPEASLPVMEGKAVLFKSFAGVDAFPICLRTTDVDQIVETVKLLEPTFGGVNLEDIAAPSCFEIEERLKKETNIPVFHDDQHGTAIVTLAGLINALKLTGKRMSEIKVVANGAGAAGIAIIKLMQRMGVRDIIMCDSKGAIYDGRPYGMNDMKAEVAKWTNRDKIDGGLGDVLKGADVFIGVSVAGALTKEMIENMNDDPIIFAMANPVPEIMPEEAKAAGAKVIGTGRSDFPNQVNNVLAFPGIFRGALDARATHINEEMKVAAVHAIADLVAEEDLDPDYVIPAPFDPRVAPAVAAAVAKTAMETGVARRKVDPAEVEAKTKKLAIIEEGHHHHHH,soluble
17,MAHHHHHHMFGTPVENLTANQIKEELRTLYGVSDFSGCIEQKDLQEKLEKTRETELITHGLKYGPLLQIGNRQSPSGIVTLTHGLGDSANGWESVAVELSRRLPHLLFLLPTASMQPVGINGGAVMNSWYDIRNVSSGNGVTEDAEAIIMSANYLKSLAYTASRRYQVPAGRVVYAGFSQGAVISLAAGLTARIAPAGVAALSGYFAAAEKILPQLCNKSLPVLLCHGTMDNIIPFSAAEKTKETLESLGVGPVTLYSYPMEHSSHPKEINDLEKFLQQVLPGPSSKS,soluble
18,MSLKKWFTILTFVLTAFLVTRTAIAETSPYVLMQQAADKLFSDIQANQSKIKQDPNYLRTIVRNDLLPYVNLEYAGSKVLGSYYKSTSAEQREKFFKTFGELIEQKYAQALTNYSNQKIQIESEKELGDNNFINIRVNIIQANGVAPILLYFKWRKGNKSGEWKVYDMVGAGVSMLEDTIKNWVGILNKQGIDTLITKMQQSASQPIIFNQEGGSHHHHHH,soluble
19,MTRSDRPYRGVEAAERLATRRRQSLSAGLDLLGSDQHDIAELTIRTICRRAGLSVRYFYESFTDKDEFVGRVFDWVVAELVATTQAAVTAVPAREQTRAGMANIVRTITADARVGRLLFSTQLANAVITRKRAESSALFAMLSGQHAVDTLHAPANDHVKAVAHFAVGGVGQTISAWLAGDVRLDPDQLVDQLAALLDELTDPNLSRPRVAATAAKSGANDPQPPEVAGQPPSSARPARRS,soluble
20,SLLLCDIGNSNANFLDDNKYFTLSIDQFLEFKNEQKIFYINVNEHLKEHLKNQKKFINLEPYFLFDTIYQGLGIDRIAACYTIEDGVVVDAGSAITIDIISNSIHLGGFILPGIANYKKIYSHISPRLKSEFNTQVSLDAFPQKTMDALSYGVFKGIYLLIKDAAQNKKLYFTGGDGQFLANYFDHAIYDKLLIFRGMKKIIKENPNLLY,soluble
21,MLKIATFNVNSIRSRLHIVIPWLKENKPDILCMQETKVENRKFPEADFHRIGYHVVFSGSKGRNGVAIASLEEPEDVSFGLDSEPKDEDRLIRAKIAGIDVINTYVPQGFKIDSEKYQYKLQWLERLYHYLQKTVDFRSFAVWCGDMNVAPEPIDVHSPDKLKNHVCFHEDARRAYKKILELGFVDVLRKIHPNERIYTFYDYRVKGAIERGLGWRGDAILATPPLAERCVDCYADIKPRLAEKPSDHLPLVAVFDV,soluble
